Target: T1, GFP-tagged PICK1 (UniProt Q9EP80 1-416)
T1 construct: construct as previously described (Cao et al., 2007); also called GFP-PICK1; source: HEK293T, transfected, in lysate
Experiment: co-IP; HEK cells co-transfected with the GFP-tagged bait and both myc-tagged proteins; IP with GFP antibody (normal rabbit serum as control), myc blot; IP signals normalised to input; lysis buffer 1% NP-40, 200 mM NaCl, 20 mM HEPES pH 7.4; 4°C
Details: partners not purified

T1 sequence (Q9EP80 whole entry): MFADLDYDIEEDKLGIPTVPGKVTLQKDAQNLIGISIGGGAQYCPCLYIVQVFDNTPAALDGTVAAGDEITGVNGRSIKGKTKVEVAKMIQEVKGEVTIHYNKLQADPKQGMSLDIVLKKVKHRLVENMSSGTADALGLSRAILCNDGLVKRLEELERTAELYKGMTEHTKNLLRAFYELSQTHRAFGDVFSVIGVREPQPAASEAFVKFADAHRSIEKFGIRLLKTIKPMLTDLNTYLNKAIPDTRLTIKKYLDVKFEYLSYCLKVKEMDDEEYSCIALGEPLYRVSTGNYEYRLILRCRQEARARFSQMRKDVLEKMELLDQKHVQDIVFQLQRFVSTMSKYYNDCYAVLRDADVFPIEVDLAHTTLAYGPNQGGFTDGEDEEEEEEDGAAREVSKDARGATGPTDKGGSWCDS

heteromer/homomer ratio (myc-ICA69 over myc-PICK1 in the IP of GFP-PICK1): 19 ratio
B1: myc-tagged ICA69 (full-length) (natural protein, UniProt Q63054 1-480, looked up)
chain: MSGHKCYSWELQDRFAQDKSVVNKMQQKYWETKQAFIKATGKKEDEHVVASDADLDAKLELFHSIQRTCLDLSKAIVLYQKRICFLSQEENELGKFLRSQGFQDKTRAGKMMQATGKALCFSSQQRLALRNPLCRFHQEVETFRHRAISDTWLTVNRMEQCRTEYRGALLWMKDVSQELDPDLYKQMEKFRKVQTQVRLAKKNFDKLKMDVCQKVDLLGASRCNLLSHMLATYQTTLLHFWEKTSHTMAAIHESFKGYQPYEFTTLKSLQDPMKKLVEKEKKKSSRRENREAVAQEPRQLISLEEENQHKESSTCQKEEGKSVPSSVDKSSADDACSGPIDELLDVKPEEACLGPMAGTPEPESGDKDDLLLLNEIFSTSSLDEGEFSREWAAVFGDDRLKEPAPMGAQGEPDPKPQIGSAFLPSQLLDQNMKDLQASLQEPAKAASDLTAWFSLFADLDPLSNPDAIGKTDKEHELLNA
notes: ICA69 (islet cell autoantigen of 69 kDa), myc-tagged full-length made by overlap extension PCR; The same protein as m1, with another tag; also called myc-ICA69; source: HEK293T, transfected, in lysate

Reference: paper PMC10213502, “ICA69 regulates activity-dependent synaptic strengthening and learning and memory” (Frontiers in Molecular Neuroscience, 2023)
